Experimental findings from publication PMC11419155 (bioRxiv, 2024) are described below.

The target of the assay is recombinant HAstV1 capsid spike, histidine-tagged (Human astrovirus 1 (AAC34717.1), UniProt O12792). As to the kind of experiment: BLI. (In general: BLI is a label-free optical method that tracks binding on a fibre tip over time.)
Chain of recombinant HAstV1 capsid spike, histidine-tagged (O12792 429-645): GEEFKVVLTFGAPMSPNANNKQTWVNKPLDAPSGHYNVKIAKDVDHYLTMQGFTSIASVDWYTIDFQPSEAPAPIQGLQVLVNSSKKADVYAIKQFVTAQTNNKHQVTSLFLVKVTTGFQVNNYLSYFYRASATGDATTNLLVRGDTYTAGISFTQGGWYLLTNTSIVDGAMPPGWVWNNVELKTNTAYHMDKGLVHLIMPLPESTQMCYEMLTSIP

B1: recombinant Fab 3H4 (Fab, V domains shown)
VH: QVQLKESGPGLVAPSQSLSISCTVSGFSLTTFGIHWIRQPPGKGLEWLGVIWAAGTTNYNSTLKSRLTITKDNSRSQVFLKMNSLQTYDTAIYYCVREDYDYFFGLDYWGQGTSVTVSS
VL: QAVVTQESALTTSPGETVTLTCRSSTGAVTTSNYASWVQEKPDHLFIGLIGGTNNRAPGVPARFSGSLIGDKAALTITGAQTDDEAIYFCALWFSNHWVFGGGTKLTVL
The Kd is a measure of binding affinity in units of concentration. Take B1: the Kd was 0.49 nM.

B2: recombinant Fab 3B4 (Fab, V domains shown)
VH: QVQLHQPGAELVKPGASVNLSCKASGYTFTSYWMHWVKQRPGQGLEWIGEINPSSGRANYNEKFKNKATLTVDKSSITAYMHLSSLTSEDSAVYYCHWDYYAMDYWGQGTSVTVSS
VL: DIVLTQSPATLSVTPGDSVSLSCRASQSISNNLHWYQQKSHESPRLLFKSASQSISGIPSRFSGSGSGTDFTLSINSVETEDFGMYFCQQTNSWPLTFGTGTKLDLK
In the case of B2, the Kd was found to be 11.8 nM.
